What all share (experiment): phage panning
In assay [1] the target is T1, recombinant human β-Klotho (human, UniProt Q86Z14 53-996, limits assumed, biotinylated in the AlphaScreen assays (site not stated)).
T1 construct: also called rhβ-klotho; huβKlotho-His
T1 sequence: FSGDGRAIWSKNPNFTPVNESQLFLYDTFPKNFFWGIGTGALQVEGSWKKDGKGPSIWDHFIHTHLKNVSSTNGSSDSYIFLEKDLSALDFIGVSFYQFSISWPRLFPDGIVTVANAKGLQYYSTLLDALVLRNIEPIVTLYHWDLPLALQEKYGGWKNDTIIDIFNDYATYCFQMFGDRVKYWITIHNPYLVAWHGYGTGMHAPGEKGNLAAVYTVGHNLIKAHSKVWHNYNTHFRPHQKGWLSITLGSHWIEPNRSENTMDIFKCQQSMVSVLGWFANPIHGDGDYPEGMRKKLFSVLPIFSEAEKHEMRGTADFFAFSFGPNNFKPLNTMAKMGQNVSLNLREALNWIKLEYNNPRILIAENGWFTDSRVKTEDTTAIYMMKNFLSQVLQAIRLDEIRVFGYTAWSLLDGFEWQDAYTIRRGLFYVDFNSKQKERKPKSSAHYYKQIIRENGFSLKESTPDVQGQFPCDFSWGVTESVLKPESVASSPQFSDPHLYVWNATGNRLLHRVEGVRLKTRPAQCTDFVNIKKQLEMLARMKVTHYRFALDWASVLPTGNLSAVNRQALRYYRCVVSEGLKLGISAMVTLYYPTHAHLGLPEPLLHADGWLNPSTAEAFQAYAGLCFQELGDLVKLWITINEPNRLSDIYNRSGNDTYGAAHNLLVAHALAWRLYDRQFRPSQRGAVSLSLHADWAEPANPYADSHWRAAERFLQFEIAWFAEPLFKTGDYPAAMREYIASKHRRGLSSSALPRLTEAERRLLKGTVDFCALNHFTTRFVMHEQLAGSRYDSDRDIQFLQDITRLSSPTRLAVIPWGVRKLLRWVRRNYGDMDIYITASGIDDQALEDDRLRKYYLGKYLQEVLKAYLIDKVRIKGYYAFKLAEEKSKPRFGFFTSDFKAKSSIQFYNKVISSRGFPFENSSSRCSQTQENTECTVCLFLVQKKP

For assay [2], the target named is T1, recombinant human β-Klotho. This is another data set of the same source.
The target in assay [3] is T1, recombinant human β-Klotho. The source holds these as a separate data set.
In assay [4] the target is T1, recombinant human β-Klotho. The source holds these as a separate data set.
For assay [5], the target named is T1, recombinant human β-Klotho. The source holds these as a separate data set.
The target in assay [6] is T1, recombinant human β-Klotho. This is another data set of the same source.
Assay [7] addresses T1, recombinant human β-Klotho. This is another data set of the same source.
For assay [8], the target named is T2, human FGFR1c-Fc (human, UniProt P11362 22-376).
T2 construct: also called huFGFR1c-Fc; huFGFR1c/Fc
T2 sequence: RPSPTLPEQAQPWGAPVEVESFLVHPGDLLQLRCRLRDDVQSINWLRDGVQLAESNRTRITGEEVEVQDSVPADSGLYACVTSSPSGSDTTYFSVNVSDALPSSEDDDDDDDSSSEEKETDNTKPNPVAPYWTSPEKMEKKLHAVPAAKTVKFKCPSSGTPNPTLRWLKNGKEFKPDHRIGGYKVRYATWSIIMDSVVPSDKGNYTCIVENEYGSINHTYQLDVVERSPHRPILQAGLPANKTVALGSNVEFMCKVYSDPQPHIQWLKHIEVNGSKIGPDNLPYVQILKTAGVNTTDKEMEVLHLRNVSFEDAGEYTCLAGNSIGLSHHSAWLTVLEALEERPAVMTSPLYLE

Where two headings read alike, the source gives them in different places.

B1: β-Klotho-binding monomer M39 (designed binder)
chain: CSAFEFHCLSGECIHSSWRCDWDLDCKDHPDEVMCALEA
On to B1, for which, in assay [1], the binding result is on record as “binds”.

B2: β-Klotho-binding monomer M27 (designed binder)
chain: CVSDEFPCRDNNICVLLHLLCDGVDDCLDSSDETGCAKPT
For B2, the binding result in assay [1] was “binds”.

B3: β-Klotho walked dimer BK_R1c_D14 (designed binder)
chain: CLPDEFQCGSGRCIPQTWVCDGLNDCGDGSDEPPAHCSAPASEPPGSLCRSDEFRCGNGRCIPLTWVCDGEDDCQDSSDETGCTTPGHT
For the molecule B3, the binding result in assay [2] was “binds”.

B4: β-Klotho walked dimer BK_R1c_D18 (designed binder)
chain: CPPDEFQCRGTKKCLPLAWVCDGDNDCEDDSDEESCASAVHTCQSNEFRCRSGRCIPQHWLCDGLNDCGDGSDESQQCSAPASEPPGSL
As to B4, the binding result in assay [3] is on record as “binds”.

B5: β-Klotho walked dimer BK_R1c_D15 (designed binder)
chain: CLPDEFQCGSGRCIPQTWVCDGLNDCGDGSDEPPAHCSAPASEPPGSLCRSNQFTCGNGNCIPQPWVCDGEDDCGDDSDEESCKEHT
Turning to B5, in assay [2], the binding result is on record as “binds”.

B6: β-Klotho walked dimer bKWD01 (designed binder)
chain: CLPDEFQCGSGRCIPQHWLCDGLNDCGDGSDEPPAHCSAPASEPPGSLCRAGEFRCSNGRCVPLTWLCDGEDDCQDNSDEKNCAQPT
Turning to B6, the binding result in assay [2] is given as “binds”.

B7: β-Klotho-binding monomer M26 (designed binder)
chain: CVPNQFQCGSGRCLPHPLGCDGVDDCLDGSDEASCAPPT
In the case of B7, the binding result in assay [1] is recorded as “binds”.

B8: β-Klotho walked dimer BK_R1c_D24 (designed binder)
chain: CRPDEFPCRSTGRCVPRRWVCDGVDDCGDNSDESLAHCQTPTCQPDEFTCSSGRCIPQPWLCDGLNDCGDGSDEPPAHCSAPASEPPGSL
Turning to B8, the binding result in assay [4] is “binds”.

B9: β-Klotho walked dimer BK_R1c_D22 (designed binder)
chain: CQPDEFTCSSGRCIPQPWLCDGLNDCGDGSDEPPAHCSAPASEPPGSLCRPDEFRCKNGRCIPQTWVCDGEDDCQDSSDETDCESTVRT
B9: the binding result in assay [5] is given as “binds”.

B10: β-Klotho walked dimer BK_R1c_D05 (designed binder)
chain: CAAGQFRCHNSDTCLPGAWVCDGDNDCGDNSDEASCQKRTCHSFNQFECRNGQCIPLHLVCDGVPDCGDNSDETDCGDSHILPFSTPGPST
As to B10, the binding result in assay [6] is on record as “binds”.

B11: β-Klotho-binding monomer bKmutM28 (designed binder)
chain: CPWFHHFKCRNGQRIPLHLVCDGVPDCGDDSDETDCGDSHILPFSTPGPST
Regarding B11, in assay [7], the binding result is given as “binds”.

B12: FGFR1c-binding monomer M03mut01 (designed binder)
chain: CGAGLFTCRSTNICISQVWVCDGVDDCEDNSDEDSCSAPASEPPGSL
notes: also called M03mutM01
On to B12, for which the binding result in assay [8] is listed as “binds”.
